Measured values taken from patent US20110312891A1, “ENAMEL MATRIX DERIVATIVE FRACTION C” (Straumann Holding AG, priority 2008, published 2011).

B1: rhAmel: recombinant human amelogenin over-expressed in Escherichia Coli (protein, UniProt Q99217 17-191, looked up)
Amelogenin, X isoform: MPLPPHPGHPGYINFSYEVLTPLKWYQSIRPPYPSYGYEPMGGWLHHQIIPVLSQQHPPTHTLQPHHHIPVVPAQQPVIPQQPMMPVPGQHSMTPIQHHQPNLPPPAQQPYQPQPVQPQPHQPMQPQPPVHPMQPLPPQPPLPPMFPMQPLPPMLPDLTLEAWPSTDKTKREEVD
B2: PTH: PTH peptides compared with EMD on primary osteoblasts (protein, UniProt P01270 32-115, looked up)
Parathyroid hormone: SVSEIQLMHNLGKHLNSMERVEWLRKKLQDVHNFVALGAPLAPRDAGSQRPRKKEDNVLVESHEKSLGEADKADVNVLTKAKSQ
modifications: Parathyroid hormone
notes: PTH peptides compared with EMD on primary osteoblasts

Experiments:
MG63 cells = assay: WST-1 cell proliferation and viability assay; assay type: cell-based, human; settings: 1 μg/mL; after 7 days; compared to the negative control
Method: Minimum Essential Medium Eagle (MEM)+10% Fetal calf serum +1% Penicilin-Streptomycin (×100)+1% Non Essential Amino Acid Solution (×100)+1% L-Glutamine (200 mM) Seeding density MG63 cells in passage 4 were seeded with a density of 10,000 cells/cm2 on 96 wells culture plates. Sampling was performed after 24 hours and 7 days in vitro.
Furthermore, the proliferation reagent WST-1 test was performed to assess cell proliferation and viability. WST-1 solution was added in a final solution of 1:10 to the monolayer culture and cells were incubated at 37° C. for a further 1 hour. The absorbance of the supernatants was measured spectrophotometrically using VersaMax micro plate reader (Molecular Devices, California, USA) at 420 nm-480 nm with a reference wavelength of 600 nm. Results are reported as optical density (OD).

osteoblasts = assay: Effect of fraction C, its isoforms and synthetic amelogenin peptides on bone markers in osteoblasts; assay type: cell-based; settings: for LDH activity in the culture medium: compared with fraction C and the mix of peptides (3113), slightly more toxic effect
Method: We have tested synthetic peptides of amelogenin (exon1, 3 and 5) of various lengths.
Fraction C, having a molecular weight of 5250.4 g/mol was used at a final concentration of 5 μg/ml (0.9 μmol/L). The peptides were used in a molar concentration similar to fraction C. WBRA001 enhanced osteocalcin and CD44 expression and secretion similar to fraction C, the smaller peptides had no effect on the bone markers in osteoblasts. 5 kDa amelogenins, isolated from EMD batch 3113 was identified to contain both; C1RP or C2RP (1-43 and 1-45 TRAP), whereas the fraction C isolated from EMD batch 9121 contains not only C1RP and C2R (1-43 and 1-45 TRAP), but 2 further, unidentified minor peaks. The effect of the different isoforms on expression of bone markers was tested on osteoblasts.

[1] = tested on: MG63 human osteoblast-like cells; assay: Osteoblast differentiation in confluent MG63 cultures treated for 24 hours (DNA, ALP, osteocalcin, OPG, VEGF, FGF-2); assay type: cell-based
Method: Methods: Confluent cultures of MG63 human osteoblast-like cells and normal human osteoblasts were treated with or without EMD, recombinant human amelogenin (rhAmel), Fraction A (0.01-100 μg/ml) or Fraction C (0.1-250 μg/ml) for 24 hours. Effects on DNA content and alkaline phosphatase specific activity (ALP), and osteocalcin (OCN), osteoprotegerin (OPG), vascular endothelial growth factor A (VEGF-A) and fibroblast growth factor-2 (FGF-2) levels in the conditioned media were determined.
MG63 osteoblast-like cells, originally isolated from a human osteosarcoma, were obtained from the American Type Culture Collection (Rockville, Md.). […]
MG63 Cells were cultured in Dulbecco's modified Eagle medium (DMEM) containing 10% fetal bovine serum (FBS) and 1% penicillin and streptomycin at 37° C. in an atmosphere of 5% CO2 and 100% humidity. […] The levels of osteocalcin in the conditioned media were measured using a commercially available radioimmunoassay kit (Human Osteocalcin RIA Kit, Biomedical Technologies, Stoughton, Mass.) and normalized to DNA content. […] Osteoprotegerin was measured using enzyme-linked immunosorbent assay (ELISA) kit (DY805 Osteoprotegerin DuoSet, R&D Systems, Minneapolis, Minn.). VEGF was assesseds using an ELISA kit (RnD Systems). […] The absorbance of the samples was read using a microplate reader and the results analyzed using a standard curve. […]

primary osteoblasts = assay: Affymetrix gene chip analysis of primary osteoblasts, EMD versus PTH; assay type: cell-based, human; settings: 24 h after stimulation; cells of two donors
Method: Commercially available primary human osteoblasts from both femur and tibia of different donors (NHOst cell system; Cambrex, Walkersville, Md., USA) were grown in osteoblast growth media (OGM, Cambrex). Cultured osteoblasts were exposed to hydrocortisone hemisuccinate (200 nM) and h-glycerophosphate (10 mM) (Cambrex) in ambient medium to facilitate mineralization. The phenotype of cells was characterized based on the expression levels of alkaline phosphatase (ALP), collagen type 1, osteocalcin, and CD44 (late differentiation marker), and formation of mineralization nodules.
Primary osteoblasts were cultured in T75 culture flasks and cultured after treatment for 24 h, 72 h or 7d respectively and lysed in 7 ml Trizol solution (Gibco, USA). Trizol lysates were kept at −70° C. until RNA isolation according to the manufacturer's protocols and further processing (Dep. of Medical Biochemistry, Oslo University, Norway). Double stranded cDNA and biotin labeled cRNA probes were made from 5 μg total RNA using the Superscript Choice system (Invitrogen) and the Enzo Bioarray respectively. Procedures were according to recommendations from Affymetrix. […]
To compare the effects of PTH peptides and EMD on primary osteoblasts, cells of two donors were treated synchronously and expression patterns were analysed by affymetrix gene chip analysis. […]

Molecule	cell viability and proliferation (WST-1) (MG63 cells)	LDH activity in the culture medium (osteoblasts)	further results
C1RP: Peak 1 of Frac C; SEQ.ID.NO: 1, 43AA form MPLPPHPGHPGYINFSYEVLTPLKWYQNMIRHP-YTSYGYEPMG (MPLPPHPGHPGYINFXYEVLTPLKWYQNMIRHPYTSYGYEPMG; MOD_RES (16)..(16) Ser or Glu, wherein Ser is optionally phosphorylated; listed as Sus scrofa) [Fraction C1RP]	clear effect	higher LDH activity	–
C2RP: Peak 2 of Frac C; SEQ.ID.NO: 2, 45AA form MPLPPHPGHPGYINFSYEVLTPLKWYQNMIRHP-YTSYGYEPMGGW (MPLPPHPGHPGYINFXYEVLTPLKWYQNMIRHPYTSYGYEPMGGW; MOD_RES (16)..(16) Ser or Glu, wherein Ser is optionally phosphorylated; listed as Sus scrofa) [Fraction C2RP]	clear effect	higher LDH activity	–
MPLPP HPGHPGYINFSYEVLTPLKWYQSIRPP-OH [WBRA001]	–	–	osteocalcin and CD44 expression and secretion (osteoblasts; molar concentration similar to fraction C, 5 μg/ml (0.9 μmol/L)): enhanced
B1	–	–	concentration of maximal increases in osteocalcin ([1]; FIG. 4): 1 µg/mL; osteocalcin production (dose response) ([1]; FIG. 4, N=6 cultures per variable, p<0.05 v. control): biphasic increase
B2	–	–	genes more than 2-fold changed in the same direction with both EMD and PTH from non-treated controls (primary osteoblasts): 254 genes
